Laboratory results: article PMC12464994, “Quantification of Membrane Protein Conformational Free Energy from Mutations and a Single Atom” (Journal of the American Chemical Society, 2025)
Positions count from the first letter of the chain named. Numbers in names are those of the source.

B1: 5FW-EmrE^W63 (EmrE W31F/W45F/W76F labeled with 5-fluoro-tryptophan at Trp63) (natural protein, E. coli)
chain: MNPYIYLGGAILAEVIGTTLMKFSEGFTRLFPSVGTIICYCASFFLLAQTLAYIPTGIAYAIWSGVGIVLISLLSFGFFGQRLDLPAIIGMMLICAGVLIINLLSRSTPH
modifications: 5-fluoro-tryptophan at Trp63
notes: EmrE, small multidrug resistance (SMR) transporter of E. coli; only Trp63 kept of the four tryptophans; also called 5FW-labeled EmrE^W63; source: E. coli BL21(DE3), M9 medium with glyphosate and fluoro-indole, purified (amylose column, TEV cleavage, SEC in DDM)
B2: 6FW-EmrE^W63 (EmrE W31F/W45F/W76F labeled with 6-fluoro-tryptophan at Trp63) (natural protein, E. coli)
chain: B1 chain
modifications: 6-fluoro-tryptophan at Trp63
notes: EmrE, small multidrug resistance (SMR) transporter of E. coli; only Trp63 kept of the four tryptophans; also called 6FW-labeled EmrE^W63; source: E. coli BL21(DE3), M9 medium with glyphosate and fluoro-indole, purified (amylose column, TEV cleavage, SEC in DDM)
B3: 5FW-EmrE^(W63, E14Q) (natural protein, E. coli)
chain: B1 chain with E14Q
modifications: 5-fluoro-tryptophan at Trp63
notes: EmrE, small multidrug resistance (SMR) transporter of E. coli; EmrE^W63 background with E14Q; also called Gln14 mutant monomer; source: E. coli BL21(DE3), M9 medium with glyphosate and fluoro-indole, purified (amylose column, TEV cleavage, SEC in DDM)
B4: 5FW-EmrE^(W63, L51I) (natural protein, E. coli)
chain: B1 chain with L51I
modifications: 5-fluoro-tryptophan at Trp63
notes: EmrE, small multidrug resistance (SMR) transporter of E. coli; EmrE^W63 background with L51I; source: E. coli BL21(DE3), M9 medium with glyphosate and fluoro-indole, purified (amylose column, TEV cleavage, SEC in DDM)

Experiments:
Assay in all cases: 19F NMR spectroscopy (one-dimensional spectra and 19F/19F ZZ-exchange/NOESY); proteins alone or mixed in DDM (1 h, 37 °C, 10 mM DTT) at stated molar ratios, reconstituted in 14:0-PC/6:0-PC isotropic bicelles (q = 0.33); pH 5.6; 37 °C; 1-2 mM protein; 150 mM Na2HPO4, 20 mM NaCl
[1] = molecular target: T1, EmrE^W63 (EmrE W31F/W45F/W76F), natural abundance (E. coli, UniProt P23895 1-110, W31F | W45F | W76F); details: both partners purified
T1 construct: EmrE, small multidrug resistance (SMR) transporter of E. coli; only Trp63 kept of the four tryptophans; NMR-silent partner in the mixed (heterodimer) samples; reconstituted in 14:0-PC/6:0-PC bicelles; also called unlabeled EmrE^W63; natural abundance EmrE^W63; source: E. coli BL21(DE3), LB medium, purified (amylose column, TEV cleavage, SEC in DDM)
T1 sequence: B1 chain

[2] = molecular target: T2, EmrE^(W63, L51I), natural abundance (E. coli, UniProt P23895 1-110, W31F | W45F | W76F | L51I); details: both partners purified
T2 construct: EmrE, small multidrug resistance (SMR) transporter of E. coli; EmrE^W63 background with L51I; also called natural abundance EmrE^(W63, L51I); source: E. coli BL21(DE3), purified (amylose column, TEV cleavage, SEC in DDM)
T2 sequence: B1 chain with L51I

[3] = molecular target: T3, EmrE^(W63, E14Q), natural abundance (E. coli, UniProt P23895 1-110, W31F | W45F | W76F | E14Q); details: both partners purified
T3 construct: EmrE, small multidrug resistance (SMR) transporter of E. coli; EmrE^W63 background with E14Q; also called natural abundance EmrE^(W63, E14Q); source: E. coli BL21(DE3), purified (amylose column, TEV cleavage, SEC in DDM)
T3 sequence: B1 chain with E14Q

[4] = molecular target: the molecule itself
[5] = molecular target: B2; details: both partners purified

Row | Binder | binding result [1] | binding result [2] | binding result [3] | binding result [4] | binding result [5]
1 | B1 | binds | binds | binds | binds | –
2 | B2 | binds | – | – | binds | –
3 | B3 | binds | – | – | binds | –
4 | B4 | binds | – | – | binds | binds
